Here are results for three molecules from patent publication US11078465B2, “Alcohol dehydrogenase mutant and application thereof in synthesis of diaryl chiral alcohols” (Jiangnan University, priority 2018, dated 2021).

Entries after “also recorded” stand apart in the source; their conditions may differ.

Common to all, as to assay type: biochemical
Data set [1] in a line: Kinetic analysis of alcohol dehydrogenase and mutants (NADPH oxidation, 340 nm, double reciprocal curve). Particulars: substrate CPMK. The gist of the method:
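His-tagged recombinant KpADH (wild type or mutant) purified by nickel affinity, desalted into Tris-HCl pH 7.0. Activity measured at 30° C in 100 mM sodium phosphate pH 7.0 with 1.0 mM NADPH and 1.0 mM CPMK by 340 nm NADPH absorbance decrease; kinetic parameters from double reciprocal plots over varied substrate and coenzyme concentrations.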

The nature of data set [2]: Stereoselectivity (ee) of CPMK reduction, chiral liquid chromatography. Particulars: for e.e.: product configuration in brackets. The gist of the method: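 ee is calculated from the (S)-CPMA and (R)-CPMA molar concentrations measured by chiral liquid chromatography; conversion also by GC. Samples are ethyl acetate extracts of the reaction, dried and redissolved in ethanol.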

A short description of data set [3]: Substrate specificity, specific activity. The procedure:
Adopting a total reaction system of 200 μL, including: 1.0 mM NADPH, 1.0 mM substrate CPMK and sodium phosphate buffer (PBS, 100 mM, pH 7.0), fully and evenly mixing, maintaining at 30° C. for 2 min, adding an appropriate amount of enzyme solution, and detecting the change in light absorption at 340 nm.
The enzyme activity was calculated by the following formula: Enzyme activity (U)=EW×V×10^3/(6220×I);
in the formula, EW is the change in absorbance at 340 nm in 1 min; V is the volume of a reaction solution in mL; 6220 is the molar extinction coefficient of NADPH in L/mol·cm); and 1 is the optical path distance in cm. One activity unit (U) corresponds to the amount of enzyme required to catalyze the oxidation of 1 μmol NADPH per minute under the above conditions.
(§1) The reduction on prochiral carbonyl compounds by the alcohol dehydrogenase mutants obtained in Example 3 was studied. The pro-chiral carbonyl compounds include (4-chlorophenyl)-(pyridin-2-yl)-methanone (CPMK), phenyl-(pyridin-2-yl)-methanone, (4-chlorophenyl)-(phenyl)-methanone, (4-bromophenyl)(phenyl)methanone, (4-fluorophenyl)(phenyl)methanone, (4-methoxyphenyl)-(phenyl)-methanone, (4-nitrophenyl)(phenyl)methanone, 1-(pyridin-2-yl)ethanone, acetophenone, 4′-Chloroacetophenone, 4-chlorophenacyl chloride, ethyl 2-oxo-4-phenylbutanoate (OPBE), ethyl 4-chloro-3-oxobutanoate, and methyl 2-oxo-2-phenylacetate.

The nature of data set [4]: Stereoselectivity on different substrates. Particulars: for Stereoselectivity (ee): configuration in brackets. The protocol:
(§2) In an embodiment of the present disclosure, a chromatographic analysis method is as follows: 100 μL of reactant liquid is taken, 500 μL of ethyl acetate is added, shaking is performed for 1-2 min, centrifugation is performed at 12,000 rpm for 2-5 min, supernatant liquid is taken into a centrifuge tube, after an organic phase naturally volatilizes completely, 500 μL of chromatographically pure ethanol is added, and chiral liquid chromatography and gas chromatography are performed to analyze the transformation rate and the ee value.
(§3) Method for determining optical purity ee:
(§4) As: molar concentration of (S)-CPMA obtained by liquid chromatography; and AR: molar concentration of (R)-CPMA obtained by liquid chromatography.
as §1
All the products above were recrystallized from ethyl acetate and gave more than 99.9% optical purity.

A short description of data set [5]: Stereoselectivity on different substrates. The settings on record: configuration in brackets. The protocol:
as §2, §3, §4, §1

The mark [6] stands for this setting: substrate [drawing 6], 4-chlorophenacyl chloride.
The mark [7] stands for this setting: substrate [drawing 9], ethyl 4-chloro-3-oxobutanoate.
Where [8] appears, read: substrate [drawing 10], acetophenone.
Where [9] appears, read: substrate [drawing 11], 4-chloroacetophenone.
Setting [10] is: substrate [drawing 12], 4-chlorobenzoyl chloride.
The mark [11] stands for this setting: substrate [drawing 16], (4-bromophenyl)-(phenyl)-methanone.
The mark [12] stands for this setting: substrate [drawing 17], p-nitrobenzophenone.
The mark [13] stands for this setting: substrate [drawing 14], likely CPMK (values partly match Table 4).

B1: E214N/S237C: asparagine for glutamate at position 214 and cysteine for serine at position 237 of SEQ ID No. 2 (protein)
chain: MSVLISGASGYIAKHIVRVLLEQNYKVIGTVRSQDKADKLLKQYNNPNLSYEIVPEIANLDAFDDIFKKHGKEIKYVIHAASPVNFGAKDLEKDLVIPAINGTKNMFEAIKKYAPDTVERVVMTASYASIMTPHRQNDPTLTLDEETWNPVTEENAYENVFTAYCASKTFAEKEAWKFVKENSDAVKFKLTTIHPSFVFGPQNFDEDVTKKLNNTCEIINGLLHAPFDTKVEKTHFCQFIDVRDVAKTHVLGFQKDELINQRLLLCNGAFSQQDIVNVFNEDFPELKGQFPPEDKDTDLNKGVTGCKIDNEKTKKLLAFEFTPFHKTIHDTVYQILHKEGRV
modifications: Protein translated from synthetic DNA
Regarding B1, the Kcat in data set [1] was 5.87 ± 0.13 s⁻¹. In data set [1], the Michaelis constant (Km) was found to be 220 ± 20 µM. Also, in data set [1], the maximum rate (Vmax) was found to be 8.80 ± 0.20 µM/min/mg. Besides, in data set [2], the “configuration of product / stereoselectivity in words” value is listed as “inversion from the R configuration to the S configuration; also recorded: (S)-CPMA”. Further, the e.e. in data set [2] is on record as 43.6 (S). The specific activity in data set [3] (substrate [drawing 1]) came to 0.84 U/mg; in data set [3] (substrate [drawing 2]), 0.52 U/mg; in data set [3] (substrate [drawing 3]) it was 0.32 U/mg; in data set [3] (substrate [drawing 4]), 7.50 U/mg; in data set [3] (substrate [drawing 5]), 7.48 U/mg; in data set [3] (setting [6]) it was 10.02 U/mg. In addition, the specific activity in data set [3] (substrate [drawing 7]) worked out at 17.10 U/mg; in data set [3] (substrate [drawing 8]), 13.21 U/mg; in data set [3] (setting [7]), 5.80 U/mg. The “Stereoselectivity (ee)” value in data set [4] (setting [8]) is given as 99.0 (R); in data set [4] (setting [9]), 97.4 (R); in data set [4] (setting [10]), 93.6 (R); in data set [4] (setting [11]), 91.9 (R); in data set [4] (setting [12]) it was 90.7 (R); in data set [5] (substrate [drawing 13]), 51.5 (R). The “Stereoselectivity (ee)” value in data set [5] (setting [13]) is 57.1 (S); in data set [5] (substrate [drawing 15]), 57.1 (R); in data set [5] (substrate [drawing 18]) it was 99.1 (S). Besides, in data set [4] (substrate p-nitrobenzophenone, (S)), the ee is 99.1%.

B2: E214R/S237C: arginine for glutamate at position 214 and cysteine for serine at position 237 of SEQ ID No. 2 (protein)
chain: MSVLISGASGYIAKHIVRVLLEQNYKVIGTVRSQDKADKLLKQYNNPNLSYEIVPEIANLDAFDDIFKKHGKEIKYVIHAASPVNFGAKDLEKDLVIPAINGTKNMFEAIKKYAPDTVERVVMTASYASIMTPHRQNDPTLTLDEETWNPVTEENAYENVFTAYCASKTFAEKEAWKFVKENSDAVKFKLTTIHPSFVFGPQNFDEDVTKKLNRTCEIINGLLHAPFDTKVEKTHFCQFIDVRDVAKTHVLGFQKDELINQRLLLCNGAFSQQDIVNVFNEDFPELKGQFPPEDKDTDLNKGVTGCKIDNEKTKKLLAFEFTPFHKTIHDTVYQILHKEGRV
modifications: Protein translated from synthetic DNA
With B2, in data set [1], the Kcat was 10.4 ± 0.11 s⁻¹. Moreover, the Michaelis-Menten constant (Km) in data set [1] was 880 ± 20 µM. For the same molecule, the maximum rate (Vmax) in data set [1] is 15.6 ± 0.16 µM/min/mg. In data set [2], the “configuration of product / stereoselectivity in words” value was “inversion from the R configuration to the S configuration; also recorded: (S)-CPMA”. For the same molecule, in data set [2], the e.e. is 48.3 (S). The specific activity stood at 0.26 U/mg in data set [3] (substrate [drawing 1]); 0.18 U/mg in data set [3] (substrate [drawing 2]); 0.36 U/mg in data set [3] (substrate [drawing 3]); 4.21 U/mg in data set [3] (substrate [drawing 4]); 1.96 U/mg in data set [3] (substrate [drawing 5]); 6.69 U/mg in data set [3] (setting [6]). Also, the specific activity in data set [3] (substrate [drawing 7]) is listed as 22.48 U/mg; in data set [3] (substrate [drawing 8]), 30.69 U/mg; in data set [3] (setting [7]), 1.88 U/mg. The “Stereoselectivity (ee)” value in data set [4] (setting [8]) is recorded as 98.3 (R); in data set [4] (setting [9]), 97.2 (R); in data set [4] (setting [10]), 92.9 (R); in data set [4] (setting [11]) it was 89.9 (R); in data set [4] (setting [12]) it was 88.0 (R); in data set [5] (substrate [drawing 13]), 50.1 (R). Also, the entries for the “Stereoselectivity (ee)” value in data set [5] (setting [13]), in data set [5] (substrate [drawing 15]) and in data set [5] (substrate [drawing 18]) were 48.3 (S), 49.8 (R) and 91.9 (R), respectively.

B3: E214V/S237A: valine for glutamate at position 214 and alanine for serine at position 237 of SEQ ID No. 2 (protein)
chain: MSVLISGASGYIAKHIVRVLLEQNYKVIGTVRSQDKADKLLKQYNNPNLSYEIVPEIANLDAFDDIFKKHGKEIKYVIHAASPVNFGAKDLEKDLVIPAINGTKNMFEAIKKYAPDTVERVVMTASYASIMTPHRQNDPTLTLDEETWNPVTEENAYENVFTAYCASKTFAEKEAWKFVKENSDAVKFKLTTIHPSFVFGPQNFDEDVTKKLNVTCEIINGLLHAPFDTKVEKTHFAQFIDVRDVAKTHVLGFQKDELINQRLLLCNGAFSQQDIVNVFNEDFPELKGQFPPEDKDTDLNKGVTGCKIDNEKTKKLLAFEFTPFHKTIHDTVYQILHKEGRV
modifications: Protein translated from synthetic DNA
Take B3: the Kcat in data set [1] came to 8.46 ± 0.27 s⁻¹. In data set [1], the Km is 320 ± 30 µM. Further, the Vmax in data set [1] is 12.69 ± 0.40 µM/min/mg. Also, in data set [2], the e.e. was 98.5 (R). Moreover, the specific activity is 0.16 U/mg in data set [3] (substrate [drawing 1]); 0.12 U/mg in data set [3] (substrate [drawing 2]); 2.37 U/mg in data set [3] (substrate [drawing 3]); 2.86 U/mg in data set [3] (substrate [drawing 4]); 9.21 U/mg in data set [3] (substrate [drawing 5]); 27.07 U/mg in data set [3] (setting [6]). Also, the specific activity in data set [3] (substrate [drawing 7]) was determined as 24.47 U/mg; in data set [3] (substrate [drawing 8]), 27.64 U/mg; in data set [3] (setting [7]) it was 8.03 U/mg. Moreover, the “Stereoselectivity (ee)” value in data set [4] (setting [8]) is 17.1 (R); in data set [4] (setting [9]) it was 97.8 (R); in data set [4] (setting [10]), 75.2 (R); in data set [4] (setting [11]) it was 88.1 (S); in data set [4] (setting [12]), 85.3 (S); in data set [5] (substrate [drawing 13]), 36.6 (R). In addition, the “Stereoselectivity (ee)” value in data set [5] (setting [13]) is 98.7 (R); in data set [5] (substrate [drawing 15]) it was 54.2 (S); in data set [5] (substrate [drawing 18]), 81.8 (S).
